Measurements taken from patent US10273464B2, “Methods and isolated protein compositions for isoprenoid diphosphate synthesis” (The Salk Institute for Biological Studies, priority 2009, dated 2019).
Changes are numbered by the printed parent chain. Numbers in names are those of the source. Entries after “also recorded” stand apart in the source; their conditions may differ. Where two headings read alike, the source gives them in different places.

Experiments:
[1] = read-out: Km value for ATP; cited from earlier work
[2] = read-out: Km value for UMP; cited from earlier work
[3] = pyruvate kinase-lactate dehydrogenase coupled assay, IP as variable substrate; format: biochemical; details: 25° C.; for kinase activity (rate of IP turnover): relevant concentrations of IP and enzyme
Experimental: All specific activity and kinetic measurements were performed using the pyruvate kinase-lactate dehydrogenase coupled assay with reference to a previously established protocol (Lindsley, 2001, Methods Mol. Biol. 95:57-64.). The reaction includes the following components in a 200 ul volume: 7 U pyruvate kinase, 10 U lactate dehydrogenase, 2 mM phosphoenolpyruvate, 0.16 mM NADH, 50 mM TRIS HCl pH 8.0, 100 mM KCl, 8 mM MgCl2, 4 mM ATP, and variable concentrations of IP (purchased from Larodan Fine Chemicals). The reaction was initiated by the addition of IPK (0.15 ug) and was followed by observing the depletion of NADH at 340 nm over time, expressed as Δ(AU340)/Δt, which was converted to Δ(ADP)/Δt. These values were then plotted against substrate concentration in GraphPad Prism® (Version 5.01 for Windows) to compute the kinetic parameters kcat and Km using the “nonlinear regression enzyme kinetic analysis” option.
From the results discussed above, it is evident that His60 from IPK plays an important role in both substrate and product binding. This is accomplished through a hydrogen bonding interaction between the Nε2 atom of His60 and a non-bridging O atom from the terminal phosphate group on either the substrate (IP) or the product (IPP). From all crystal structure data, it is apparent that the Nε2 group of His60 (and not the Nδ1 group) is relevant for binding and may therefore be reasonably assumed by one skilled in the art to be relevant for IPK-mediated catalysis. To confirm this hypothesis, His60 was mutated to Ala, Asn, and Gln. The Asn and Gln mutations were made based on the rationale that their side chains contain N atoms that are isosteric with the Nδ1 and Nε2 groups on His, respectively.

[4] = coupled IPK / 5-epi-aristolochene synthase (TEAS) vial assay, GC-MS, FP to FPP conversion; format: biochemical; details: 10 μM IPK, 150 μM FP, ATP, Mg, pH 8.0, 20 minutes at 55° C., 5-epi-aristolochene quantified by GC-MS
Experimental: FIG. 10: Assays of IPK and mutants. The single mutants of IPK, I86A and I146A, and the double mutant I86A/I146A, were tested with the C15-substrate farnesyl monophosphate (FP) using a coupled assay with a terpene cyclase (TEAS). In the first step of the reaction, IPK was incubated with magnesium, ATP, and FP at pH 8.0 for 20 minutes at 55° C. (assuming sufficient time for conversion of FP to FPP). In the second step of the reaction, a small sample of the first reaction was added to a glass vial containing magnesium and a sesquiterpene cyclase known as tobacco 5-epi-aristolochene synthase (TEAS), and this reaction was incubated overnight at 25° C. Assuming complete conversion of FPP to 5-epi-aristolochene, the reaction was extracted with ethyl acetate and the amount of 5-epi-aristolochene was quantified by GC-MS analysis.
FIGS. 11A-11B: Farnesyl phosphate (FP) phosphorylation by IPK chain length mutants. FIG. 11A: FIG. 11A depicts the coupled IPK-sesquiterpene synthase reaction used to test for FP transphosphorylation. FIG. 11B: FIG. 11B depicts comparative bar graph showing several IPK mutants qualitatively tested for their ability to convert FP to FPP, expressed as a percentage of maximal production of 5-epi-aristolocene produced from IPK-generated FPP using wild-type IPK and identical concentrations of wild-type tobacco 5-epi-aristolochene synthase incubated for equivalent lengths of time.
IPK mutants (at a final concentration of 10 μM) were incubated in a 50 μl reaction with 150 μM farnesyl monophosphate (FP), 7 mM MgCl2, 4 mM ATP, and 50 mM TRIS.HCl pH 8.0 for 20 minutes at 55° C. 10 μl of this reaction was then added to a 500 μl reaction containing 45 ug of the terpene cyclase 5-epi-aristolochene synthase (TEAS) and 10 mM MgCl2 in a 3-component buffer system (25 mM MES, 50 mM TRIS.HCl, 25 mM CAPS) at pH 7.0. A method known as the “vial assay” (O'Maille et al., 2004, Anal. Biochem. 335:210-217) was employed by overlaying this aqueous layer with 500 μl of ethyl acetate, incubating overnight at 25° C., and vortexing to extract the terpene product into the organic layer prior to quantitative GC-MS analysis. Both negative and positive control reactions were conducted as follows. For the negative control, no IPK was added to the first reaction. For the positive control, […] of FPP (equivalent to the amount that would be present assuming complete FP to FPP turnover) was added to the TEAS reaction.
Similar studies were conducted using FPP modeled into the active site of IPK. The reaction of IPK on FP to form FPP is depicted in FIG. 10. The I146A I86A single-residue mutations, and the […] double mutation were tested with the C15-substrate farnesyl monophosphate (FP) using a coupled assay with a terpene cyclase (TEAS). In the first step of the reaction, IPK was incubated with magnesium, ATP, and FP at pH 8.0 for 20 minutes at 55° C., which was judged as sufficient time for conversion of FP to FPP. In the second step of the reaction, a small sample of the first reaction was added to a glass vial containing magnesium and a sesquiterpene cyclase known as tobacco 5-epi-aristolochene synthase (TEAS), and this reaction was incubated overnight at 25° C. Assuming complete conversion of FPP to 5-epi-aristolochene, the reaction was extracted with ethyl acetate and the amount of 5-epi-aristolochene was quantitated by GC-MS analysis.

[5] = pyruvate kinase-lactate dehydrogenase coupled assay, Km for ATP; format: biochemical; details: 25° C.
Experimental: All specific activity and kinetic measurements were performed using the pyruvate kinase-lactate dehydrogenase coupled assay with reference to a previously established protocol (Lindsley, 2001, Methods Mol. Biol. 95:57-64.). […] The reaction was initiated by the addition of IPK (0.15 ug) and was followed by observing the depletion of NADH at 340 nm over time, expressed as Δ(AU340)/Δt, which was converted to Δ(ADP)/Δt. These values were then plotted against substrate concentration in GraphPad Prism® (Version 5.01 for Windows) to compute the kinetic parameters kcat and Km using the “nonlinear regression enzyme kinetic analysis” option.

[6] = measured in one instance (other than Table 4)

B1: UMPK from Sulfolobus solfataricus: uridine monophosphate kinase from Sulfolobus solfataricus, literature comparison (Jensen et al., 2007) (protein, UniProt Q97ZE2 1-227, looked up)
Uridylate kinase: MMNIILKISGKFFDEDNVDNLIVLRQSIKELADNGFRVGIVTGGGSTARRYIKLAREIGIGEAYLDLLGIWASRLNAYLVMFSLQDLAYMHVPQSLEEFIQDWSHGKVVVTGGFQPGQSTAAVAALVAEASSSKTLVVATNVDGVYEKDPRIYADVKLIPHLTTQDLRKILEGSQSVQAGTYELLDPLAIKIVERSKIRVIVMNYRKLNRIIDILKGEEVSSIIEPV
Km [1]: 81 µM
Km [2]: 14 µM

B2: IPK-Mjannaschii H60A: M. jannaschii IPK with His60 mutated to Ala (protein, UniProt Q60352 1-260, looked up, variant H60A)
Isopentenyl phosphate kinase: MLTILKLGGSILSDKNVPYSIKWDNLERIAMEIKNALDYYKNQNKEIKLILVHGGGAFGAPVAKKYLKIEDGKKIFINMEKGFWEIQRAMRRFNNIIIDTLQSYDIPAVSIQPSSFVVFGDKLIFDTSAIKEMLKRNLVPVIHGDIVIDDKNGYRIISGDDIVPYLANELKADLILYATDVDGVLIDNKPIKRIDKNNIYKILNYLSGSNSIDVTGGMKYKIDMIRKNKCRGFVFNGNKANNIYKALLGEVEGTEIDFSE
kinase activity (rate of IP turnover) [3]: immeasurable; also recorded: no measurable activity

B3: I86A/I146A: IPK double mutant I86A and I146A (protein)
chain: B2 Isopentenyl phosphate kinase with A60H, I86A, I146A, D223E
conversion (phosphorylation) of FP to FPP [4]: significant percentage of substrate
conversion (phosphorylation) of FP to FPP ([4]; listed as I146A/I146A): significant percentage of FP

B4: I86A: IPK single mutant, residue 86 Ile to Ala (protein, listed as Methanocaldococcus jannaschii)
chain: B2 Isopentenyl phosphate kinase with A60H, I86A, D223E
conversion (phosphorylation) of FP to FPP [4]: significant percentage of FP; also recorded: significant percentage of substrate

B5: I156V: IPK mutant, residue 156 Ile to Val (protein, listed as Methanocaldococcus jannaschii)
chain: B2 Isopentenyl phosphate kinase with A60H, I156V, D223E
conversion (phosphorylation) of FP to FPP [4]: decreased activity

B6: IPK-Mjannaschii: isopentenyl phosphate kinase from Methanocaldococcus jannaschii, SEQ ID NO:1, wild type (protein, listed as Methanocaldococcus jannaschii)
chain: B2 Isopentenyl phosphate kinase with A60H, D223E
Km [5]: 198 µM
conversion (phosphorylation) of FP to FPP [4]: significantly less phosphorylation
Km [3]: 4.3 ± 0.6 µM
kcat [3]: 1.46 ± 0.03 s⁻¹

B7: F83A/I86A/I156A: IPK triple mutant F83A, I86A, I156A (protein)
chain: B2 Isopentenyl phosphate kinase with A60H, F83A, I86A, I156A, D223E
conversion (phosphorylation) of FP to FPP [4]: greatest turnover

B8: I146A: IPK single mutant, residue 146 Ile to Ala (protein, listed as Methanocaldococcus jannaschii)
chain: B2 Isopentenyl phosphate kinase with A60H, I146A, D223E
conversion (phosphorylation) of FP to FPP [4]: significant percentage of FP; also recorded: significant percentage of substrate

B9: I146V: IPK mutant, residue 146 Ile to Val (protein, listed as Methanocaldococcus jannaschii)
chain: B2 Isopentenyl phosphate kinase with A60H, I146V, D223E
conversion (phosphorylation) of FP to FPP [4]: decreased activity

B10: IPK-Mjannaschii H60Q: M. jannaschii IPK with His60 mutated to Gln (protein, UniProt Q60352 1-260, looked up, variant H60Q)
Isopentenyl phosphate kinase: B2 Isopentenyl phosphate kinase with A60Q
Km [5]: 559 µM
Km [3]: 34.5 µM
kcat [3]: 0.040 ± 0.002 s⁻¹
kinase activity (rate of IP turnover) [3]: able to turn over a measurable amount of IP
Km for IP, fold larger than wild type ([3]; versus wild type IPK): 8 fold
kcat, fold slower than wild type ([3]; versus wild type IPK): ~40 fold
kcat ([3]; listed as H60Q): 0.04 s⁻¹

B11: IPK-Mjannaschii H60N: M. jannaschii IPK with His60 mutated to Asn (protein, UniProt Q60352 1-260, looked up, variant H60N)
Isopentenyl phosphate kinase: B2 Isopentenyl phosphate kinase with A60N
kinase activity (rate of IP turnover) [3]: immeasurable; also recorded: no measurable activity

B12: IPK-Mmaripaludis: isopentenyl phosphate kinase homolog from Methanococcus maripaludis, SEQ ID NO:8 (protein, listed as Methanococcus maripaludis)
chain: MFAILKLGGSILCDKNVPYSINWENLENIAIEIKEAIEYYSSKNEDFKLIIVHGGGSFGHPVAKKYLKNEKFEDMGKGYWEIQKAMRKFNNIVIEELQNFEPAVSIQASSFITFNHKSNLHFDTNAIEKMLDKGLIPVIHGDIVIDEKTDNFKIFSGDHALPFLSKKLNPDLSLHASDVDGVWDSEFKIIENINSKNIEDVLKSLKPSNKEDVTGGMHLKVMECYNLGIETIIFNGNKKRNIYNALLKNVKGTLIN
Km [5, 6]: 96 ± 6 µM
Km [3]: 21.4 ± 4.2 µM
kcat [3]: 13.1 ± 0.5 s⁻¹
Km [3, 6]: 16.1 µM
